# Measurements as given in patent US20180236053A1 (CELLECTIS, published 2018).
# B1: 28F5-V2 CAR (other)
# chain: QIQLVQSGPELKKPGETVKISCKASGYTFTKYGMNWVKQTPGKGLKWMGWINTNSGEPTYAEEFKGRFAFSLETSASTAYLQINNLKNEDTATYFCARGAYYRYDGEVSYYAMDYWGQGTSVTVSSGGGGSGGGGSGGGGSQIILTQSPAIMSASLGERVTMTCTATSSLSSSYLHWYQQKPGSSPKLWIYSTSHLASGVPARFSGGGSGTSYSLTISSMEAEDAATYYCHQYHLSPYTFGGGTKLEIKTTTPAPRPPTPAPTIASQPLSLRPEACRPAAGGAVHTRGLDFACDIYIWAPLAGTCGVLLLSLVITLYCKRGRKKLLYIFKQPFMRPVQTTQEEDGCSCRFPEEEEGGCELRVKFSRSADAPAYQQGQNQLYNELNLGRREEYDVLDKRRGRDPEMGGKPRRKNPQEGLYNELQKDKMAEAYSEIGMKGERRRGKGHDGLYQGLSTATKDTYDALHMQALPPR
# notes: Chimeric antigen receptor on T cells; signal peptide left out here
# Key:
# [1] = biological target: CD38 antigen on the surface of cells (U266 CD38+, MOLP8, Daudi, T-ALL cell lines, activated T cells) (human, UniProt P28907 1-300); experiment: cell-based or functional assay
# [2] = biological target: T1, CD38-Fc protein (produced by LakePharma) (UniProt P28907 43-300, limits assumed); experiment: flow cytometry, CD38 Fc staining of CD38/TRAC double KO T cells transduced with rLV (FIG. 27C)
# T1 construct: Staining reagent for CAR detection by flow cytometry; also called CD38-Fc fusion protein; not shown: Fc part
# Protocol: The parameters are the following: T cells were activated by using Dynabeads CD3-CD28, the culture were made by using medium Xvivo+5% human serum heat inactivated+IL-2 20 ng/ml, a double KO (DKO) CD38-TRAC was performed by using a ratio of 2 μg TALEN mRNA per million of cells (5 million cells/cuvette); the transduction was performed by using rLV from Vectalys(France) at a MOI of 5.
# The screening of the 4 CARs 25A10-v1, -v2, 28F5-v1 and -v2 after rLV transduction in DKO T cells has shown that all the CARs were expressed at the T cell surface with a high efficiency (>40%) and 3 of them above 80% (FIG. 27C). RQR8 expression was correlated with CAR expression (FIG. 27A). Most of the T cells were CD38 negative when T cells have been transduced by CD38 CARs (FIG. 27A). It is shown also that 60-85% of T cells endowed with the above 4 CARs were DKO TRAC/CD38 (FIG. 27B).
# [3] = biological target: T1, CD38-Fc protein (produced by LakePharma); experiment: flow cytometry, CD38-Fc fusion protein staining of purified CD38-deficient T cells transfected with CAR mRNA (FIG. 15)
# Protocol: T cells were purified from buffy coat samples and activated using anti-CD3/CD28 coated beads and IL-2. CD38-1 TALEN mRNA was transfected in T cells at day 4 after activation, 6 days later CD38 negative cells were purified by using magnetic separation (Miltenyi). The day after, CAR mRNAs were transfected. The CAR expression and degranulation capacity of CART cells were assessed 24 hours after the transfection. CAR expression and cytotoxic capacity of CART cells were assessed 48 hours after the transfection.
# All CARs were detected 24 h after transfection except the 25A10-V3 However, the latter expressed anti-CD38 CAR above the background. The 13F11-V2, 25A10-V1, 25A10-V2 and 28F5-V2 were highly expressed (more than 80%).
binder,measurement,setting,value
B1,ratio of degranulation against U266 CD38+ and U266 CD38-,[1],> 2 ratio
same,% of T cells stained by CD38-Fc (CAR expression),[2],> 40%
same,% of T cells stained by CD38-Fc (CAR expression),[3],> 80%
